In data set [1] the target is TIA1 protein (recombinant, purchased from Origene) (human) (UniProt P31483). As to the kind of experiment: MST self-assembly, labelled TIA1 titrated with non-labeled TIA1, without 2′,3′-cAMP.
For data set [2] the target is unchanged. As to the kind of experiment: MST self-assembly, labelled TIA1 titrated with non-labeled TIA1, in the presence of 500 µM 2′,3′-cAMP.
For data set [3], the target named is FBA6 protein expressed and purified from E. coli (Arabidopsis) (UniProt Q9SJQ9). The experiment in a line: microscale thermophoresis (MST), FBA6 purified from E. coli. In general terms: MST reads how a fluorescent partner responds to local heating, with and without ligand.
Sequence of FBA6 protein expressed and purified from E. coli (Arabidopsis) (Q9SJQ9 whole entry): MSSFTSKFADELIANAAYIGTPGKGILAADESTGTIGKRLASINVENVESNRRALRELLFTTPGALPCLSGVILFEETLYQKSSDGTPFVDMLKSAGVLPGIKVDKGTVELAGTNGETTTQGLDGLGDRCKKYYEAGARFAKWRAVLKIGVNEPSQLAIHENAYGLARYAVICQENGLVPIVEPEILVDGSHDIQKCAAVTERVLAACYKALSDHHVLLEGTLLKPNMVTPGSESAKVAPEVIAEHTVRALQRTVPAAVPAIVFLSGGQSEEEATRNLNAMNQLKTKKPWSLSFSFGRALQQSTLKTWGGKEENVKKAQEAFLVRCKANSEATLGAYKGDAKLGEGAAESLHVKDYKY
Data set [4] deals with the molecule itself. The experiment in a line: MST self-assembly, labelled Rbp47b titrated with non-labeled Rbp47b, without 2′,3′-cAMP. The procedure:
(§1) MST measurements were performed using a Monolith NT.115 instrument (NanoTemper, München, Germany). Capillaries were loaded into the instrument as sets of 13-16 point ligand titrations. […] Excitation was optimized by varying the LED power to yield emission intensities above 200 AU, corresponding to 10-50 nM labeled protein. Monolith power was set to 60%. Ligands [2′,3′-cAMP (Sigma A9376)] and [3′,5′-cAMP (Sigma A6885)] were dissolved in PBS. 0.5% Tween and premium coated capillaries were used to prevent sticking. […] MO Affinity Analysis software was used to analyze (Kd calculation) and visualize the data. Presented data are from 2-3 technical replicates.

Data set [5] concerns the molecule itself. The experiment in a line: MST self-assembly, labelled Rbp47b titrated with non-labeled Rbp47b, in the presence of 50 µM 2′,3′-cAMP. The procedure:
as §1

Experimental findings from patent US20190361012A1 (published 2019) are described below.

In general, Kd refers to the free concentration of one partner at which half of the binding sites on the other are occupied at equilibrium, for simple one-to-one binding. As to “TIA1 protein (recombinant, purchased from Origene) (from UniProt P31483 1-386)”, the values for the Kd in data set [1] and in data set [2] were 36.3 nM and 20.6 nM, respectively.
In data set [3], L-Gly-L-Pro (peptide) registered a Kd of 200 nM.

B1: His6-Rbp47b (other, Arabidopsis)
chain: HHHHHHMQTTNGSDSTLATSGATPPNQQTPPPPQQWQQQQQQQQQWMAAMQYPPAAAMMMMQQQQMLMYPHQYVPYNQGPYQQHHPQLHQYGSYQQHQHQQHKAIDRGSGDDVKTLWVGDLLHWMDETYLHSCFSHTGEVSSVKVIRNKLTSQSEGYGFVEFLSRAAAEEVLQNYSGSVMPNSDQPFRINWASFSTGEKRAVENGPDLSVFVGDLSPDVTDVLLHETFSDRYPSVKSAKVVIDSNTGRSKGYGFVRFGDENERSRALTEMNGAYCSNRQMRVGIATPKRAIANQQQHSSQAVILAGGHGSNGSMGYGSQSDGESTNATIFVGGIDPDVIDEDLRQPFSQFGEVVSVKIPVGKGCGFVQFADRKSAEDAIESLNGTVIGKNTVRLSWGRSPNKQWRGDSGQQWNGGYSRGHGYNNGGGYANHHDSNNYHGEN
modifications: the labelled partner carries RED-NHS (amine reactive) dye; the titrated partner is non-labeled
notes: Cloned as His6-Rbp47b-GFP in E. coli; The fraction that had spontaneously lost GFP (His6-Rbp47b) was used for MST; In the self-assembly assay labelled Rbp47b was titrated with non-labeled Rbp47b; also called Rb47b
Turning to B1, the Kd worked out at 128 nM in data set [4] and 8.9 nM in data set [5].
